The data set deals with Bacillus subtilis. As to the kind of experiment: cleaved RNA product abundance (RNA/gDNA barcode ratio) relative to median wild-type variant (ratio to wild type); higher = more accumulation of the downstream cleavage product. Particulars: cleavage site: cggR-gapA (positions -7 to +36 mutated). Summed up:
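B. subtilis strains with chromosomally integrated reporter mRNAs (truncated aprE or tetM) holding barcoded, mutagenized RNase Y cleavage-site windows grew in LB at 37°C from OD600 0.0003 to 0.3. Cleaved product abundance is each construct's RNA:gDNA barcode ratio, scaled to the median construct with the unmutated site. It came from sequencing barcodes of gel-selected, reverse-transcribed cleaved RNA and of genomic DNA.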

[1] abbreviates: experiment (reporter, strain, medium): exp 4a: truncated aprE reporter, strain BJT201 with 2% xylose (RNase J1 expressed).
Setting [2] is: experiment (reporter, strain, medium): exp 2b: truncated aprE reporter, strain BJT200.
Where [3] appears, read: experiment (reporter, strain, medium): exp 6: tetM reporter, strain 168.

For “ACAGACGAAGGAGCCGCAAAGAAGTTATAAAGGGATGAATAATCCCTCAACATAAATATCTCTCACTTATTTAAA”, the “cleaved RNA product abundance” value under setting [1] came to 0.304.
Take “ACAGACGAAGGAGCCGCAAAGAAGTTATAAAGGGATGAATAATCCCTCAATAAAAATATCTCTCACTTATTTAAA”: the “cleaved RNA product abundance” value runs as follows: under setting [2], 0.125; under setting [1], 0.0461.
Regarding “ACAGACGAAGGAGCCGCAAAGAAGTTATAAAGGGATGAATAATCCCTCAATATAAAAATCTCTCACTTATTTAAA”, the “cleaved RNA product abundance” value under setting [2] came out at 0.338.
For “ACAGACGAAGGAGCCGCAAAGAAGTTATAAAGGGATGAATAATCCCTCAATATAAATAACTCTCACTTATTTAAA”, under setting [1], the “cleaved RNA product abundance” value was found to be 0.424.
On the same count and under the same terms, the same measure for “ACAGACGAAGGAGCCGCAAAGAAGTTATAAAGGGATGAATAATCCCTCAATATAAATATATCTCACTTATTTAAA”: 0.419.
With “ACAGACGAAGGAGCCGCAAAGAAGTTATAAAGGGATGAATAATCCCTCAATATAAATATCTCTCACTTATTTAAA”, the “cleaved RNA product abundance” value is, setting by setting: under setting [2], 0.363; under setting [1], 0.454; under setting [3], 0.4.
As for “ACAGACGAAGGAGCCGCAAAGAAGTTATAAAGGGATGAATAATCCCTCAATATAAATATTTCTCACTTATTTAAA”, the “cleaved RNA product abundance” value under setting [1] turned out to be 0.51.
As to “ACAGACGAAGGAGCCGCAAAGAAGTTATAAAGGGATGAATAATCCCTCAATATAAATTTCTCTCACTTATTTAAA”, under setting [1], the “cleaved RNA product abundance” value came to 0.387.
For the sequence “ACAGACGAAGGAGCCGCAAAGAAGTTATAAAGGGATGAATAATCCCTCAATATAATTATCTCTCACTTATTTAAA”, under setting [1], the “cleaved RNA product abundance” value is 0.171.
As for “ACAGACGAAGGAGCCGCAAAGAAGTTATAAAGGGATGAATAATCCCTCAATATAGATATCTCTCACTTATTTAAA”, the “cleaved RNA product abundance” value is 0.19 under setting [2] and 0.475 under setting [1].
On to “ACAGACGAAGGAGCCGCAAAGAAGTTATAAAGGGATGAATAATCCCTCAATATATATATCTCTCACTTATTTAAA”, for which the “cleaved RNA product abundance” value is 0.359 under setting [2] and 0.58 under setting [1].
Turning to “ACAGACGAAGGAGCCGCAAAGAAGTTATAAAGGGATGAATAATCCCTCAATATTAATATCTCTCACTTATTTAAA”, the “cleaved RNA product abundance” value under setting [1] came to 0.105.
Take “ACAGACGAAGGAGCCGCAAAGAAGTTATAAAGGGATGAATAATCCCTCAATTTAAATATCTCTCACTTATTTAAA”: the “cleaved RNA product abundance” value reads like this: under setting [2], 0.146; under setting [1], 0.152.
On to “ACAGACGAAGGAGCCGCAAAGAAGTTATAAAGGGATGAATAATCCCTCACTATAAATATCTCTCACTTATTTAAA”, for which the “cleaved RNA product abundance” value under setting [1] is 0.322.
As for “ACAGACGAAGGAGCCGCAAAGAAGTTATAAAGGGATGAATAATCCCTCCATATAAATATCTCTCACTTATTTAAA”, the “cleaved RNA product abundance” value under setting [1] worked out at 0.266.
The same measure, in the same setting: the value for “ACAGACGAAGGAGCCGCAAAGAAGTTATAAAGGGATGAATAATCCCTCTATATAAATATCTCTCACTTATTTAAA” was 0.941.
Take “ACAGACGAAGGAGCCGCAAAGAAGTTATAAAGGGATGAATAATCCCTGAATATAAATATCTCTCACTTATTTAAA”: under setting [1], the “cleaved RNA product abundance” value turned out to be 0.634.
For the sequence “ACAGACGAAGGAGCCGCAAAGAAGTTATAAAGGGATGAATAATCCCTTAATATAAATATCTCTCACTTATTTAAA”, the “cleaved RNA product abundance” value is, setting by setting: under setting [2], 0.56; under setting [1], 0.593.
Consider “ACAGACGAAGGAGCCGCAAAGAAGTTATAAAGGGATGAATAATCCGTCAATATAAATATCTCTCACTTATTTAAA”, for which the “cleaved RNA product abundance” value under setting [2] came out at 0.154.
For the sequence “ACAGACGAAGGAGCCGCAAAGAAGTTATAAAGGGATGAATAATCCTTCAATATAAATATCTCTCACTTATTTAAA”, the “cleaved RNA product abundance” value turned out to be 0.174 under setting [2] and 0.283 under setting [1].
Consider “ACAGACGAAGGAGCCGCAAAGAAGTTATAAAGGGATGAATAATCTCTCAATATAAATATCTCTCACTTATTTAAA”, for which the “cleaved RNA product abundance” value under setting [1] was found to be 0.338.
Regarding “ACAGACGAAGGAGCCGCAAAGAAGTTATAAAGGGATGAATAATGCCTCAATATAAATATCTCTCACTTATTTAAA”, the “cleaved RNA product abundance” value under setting [2] was found to be 0.113.
Consider “ACAGACGAAGGAGCCGCAAAGAAGTTATAAAGGGATGAATAATTCCTCAATATAAATATCTCTCACTTATTTAAA”, for which the “cleaved RNA product abundance” value under setting [1] came out at 0.293.
Same read-out and setting: the same measure for “ACAGACGAAGGAGCCGCAAAGAAGTTATAAAGGGATGAATACTCCCTCAATATAAATATCTCTCACTTATTTAAA”: 0.287; for “ACAGACGAAGGAGCCGCAAAGAAGTTATAAAGGGATGAATATTCCCTCAATATAAATATCTCTCACTTATTTAAA”: 0.281.
“ACAGACGAAGGAGCCGCAAAGAAGTTATAAAGGGATGAATGATCCCTCAATATAAATATCTCTCACTTATTTAAA”: the “cleaved RNA product abundance” value under setting [2] is 0.193 and the “cleaved RNA product abundance” value under setting [1] was 0.273.
For “ACAGACGAAGGAGCCGCAAAGAAGTTATAAAGGGATGAATTATCCCTCAATATAAATATCTCTCACTTATTTAAA”, in that order: 0.279 and 0.469.
Turning to “ACAGACGAAGGAGCCGCAAAGAAGTTATAAAGGGATGACTAATCCCTCAATATAAATATCTCTCACTTATTTAAA”, the “cleaved RNA product abundance” value by setting is: under setting [1], 0.286; under setting [3], 0.319.
For the sequence “ACAGACGAAGGAGCCGCAAAGAAGTTATAAAGGGATGCATAATCCCTCAATATAAATATCTCTCACTTATTTAAA”, the “cleaved RNA product abundance” value by setting is: under setting [2], 0.309; under setting [1], 0.241.
The like results for “ACAGACGAAGGAGCCGCAAAGAAGTTATAAAGGGATGTATAATCCCTCAATATAAATATCTCTCACTTATTTAAA” were, in that order, 0.322 and 0.401.
For “ACAGACGAAGGAGCCGCAAAGAAGTTATAAAGGGATTAATAATCCCTCAATATAAATATCTCTCACTTATTTAAA”, in that order: 0.333 and 0.362.
Turning to “ACAGACGAAGGAGCCGCAAAGAAGTTATAAAGGGCTGAATAATCCCTCAATATAAATATCTCTCACTTATTTAAA”, the “cleaved RNA product abundance” value under setting [1] was 0.286.
Regarding “ACAGACGAAGGAGCCGCAAAGAAGTTATAAAGGGGTGAATAATCCCTCAATATAAATATCTCTCACTTATTTAAA”, under setting [1], the “cleaved RNA product abundance” value is 0.422.
Consider “ACAGACGAAGGAGCCGCAAAGAAGTTATAAAGGGTTGAATAATCCCTCAATATAAATATCTCTCACTTATTTAAA”, for which the “cleaved RNA product abundance” value is 0.163 under setting [2] and 0.24 under setting [1].
The like results for “ACAGACGAAGGAGCCGCAAAGAAGTTATAAAGGTATGAATAATCCCTCAATATAAATATCTCTCACTTATTTAAA” were, in that order, 0.0925 and 0.0975.
Consider “ACAGACGAAGGAGCCGCAAAGAAGTTATAAAGTGATGAATAATCCCTCAATATAAATATCTCTCACTTATTTAAA”, for which the “cleaved RNA product abundance” value reads like this: under setting [2], 0.0907; under setting [1], 0.117.
Take “ACAGACGAAGGAGCCGCAAAGAAGTTATAAATGGATGAATAATCCCTCAATATAAATATCTCTCACTTATTTAAA”: the “cleaved RNA product abundance” value is, setting by setting: under setting [2], 0.113; under setting [1], 0.165.
As to “ACAGACGAAGGAGCCGCAAAGAAGTTATAAGGGGATGAATAATCCCTCAATATAAATATCTCTCACTTATTTAAA”, under setting [1], the “cleaved RNA product abundance” value was determined as 0.49.
On to “ACAGACGAAGGAGCCGCAAAGAAGTTATAATGGGATGAATAATCCCTCAATATAAATATCTCTCACTTATTTAAA”, for which the “cleaved RNA product abundance” value by setting is: under setting [2], 0.29; under setting [1], 0.293.
Turning to “ACAGACGAAGGAGCCGCAAAGAAGTTATATAGGGATGAATAATCCCTCAATATAAATATCTCTCACTTATTTAAA”, the “cleaved RNA product abundance” value under setting [1] came to 0.664.
The same measure, in the same setting: the same measure for “ACAGACGAAGGAGCCGCAAAGAAGTTATCAAATGATGAATAATCCCTCAATATAAATATCTCTCACTTATTTAAA”: 0.123.
For the sequence “ACAGACGAAGGAGCCGCAAAGAAGTTATCAACGGATGAATAATCCCTCAATATAAATATCTCTCACTTATTTAAA”, the “cleaved RNA product abundance” value under setting [1] was determined as 0.15.
Turning to “ACAGACGAAGGAGCCGCAAAGAAGTTATCAAGAGATGAATAATCCCTCAATATAAATATCTCTCACTTATTTAAA”, the “cleaved RNA product abundance” value is, setting by setting: under setting [2], 0.0893; under setting [1], 0.116.
For the sequence “ACAGACGAAGGAGCCGCAAAGAAGTTATCAAGCGATGAATAATCCCTCAATATAAATATCTCTCACTTATTTAAA”, the “cleaved RNA product abundance” value under setting [1] came to 0.0711.
On to “ACAGACGAAGGAGCCGCAAAGAAGTTATCAAGGAATGAATAATCCCTCAATATAAATATCTCTCACTTATTTAAA”, for which the “cleaved RNA product abundance” value under setting [1] stood at 0.11.
Same read-out and setting: the same measure for “ACAGACGAAGGAGCCGCAAAGAAGTTATCAAGGCATGAATAATCCCTCAATATAAATATCTCTCACTTATTTAAA”: 0.0787; for “ACAGACGAAGGAGCCGCAAAGAAGTTATCAAGGGATAAATAATCCCTCAATATAAATATCTCTCACTTATTTAAA”: 0.234.
Regarding “ACAGACGAAGGAGCCGCAAAGAAGTTATCAAGGGATCAATAATCCCTCAATATAAATATCTCTCACTTATTTAAA”, the “cleaved RNA product abundance” value under setting [2] came to 0.24.
Take “ACAGACGAAGGAGCCGCAAAGAAGTTATCAAGGGATGAAAAATCCCTCAATATAAATATCTCTCACTTATTTAAA”: the “cleaved RNA product abundance” value under setting [1] is 0.272.
Consider “ACAGACGAAGGAGCCGCAAAGAAGTTATCAAGGGATGAATAAACCCTCAATATAAATATCTCTCACTTATTTAAA”, for which the “cleaved RNA product abundance” value is, setting by setting: under setting [2], 0.148; under setting [1], 0.205.
In the case of “ACAGACGAAGGAGCCGCAAAGAAGTTATCAAGGGATGAATAATACCTCAATATAAATATCTCTCACTTATTTAAA”, the “cleaved RNA product abundance” value under setting [2] amounted to 0.149 and the “cleaved RNA product abundance” value under setting [1] worked out at 0.132.
As for “ACAGACGAAGGAGCCGCAAAGAAGTTATCAAGGGATGAATAATCACTCAATATAAATATCTCTCACTTATTTAAA”, the “cleaved RNA product abundance” value by setting is: under setting [2], 0.123; under setting [1], 0.139.
Take “ACAGACGAAGGAGCCGCAAAGAAGTTATCAAGGGATGAATAATCCATCAATATAAATATCTCTCACTTATTTAAA”: under setting [1], the “cleaved RNA product abundance” value is 0.321.

The record behind these values is the supplement of paper PMC11780869.
